Assays:
dopamine D2 receptor = target: T1, dopamine D2 receptor (Homo sapiens, UniProt P14416); test: Forskolin, dopamine and haloperidol responses of biosensor clones in HEK293 cells stably expressing the dopamine D2 receptor; type: cell-based; settings: for Dopamine Induced: 3 μM FSK + 0.3 μM dopamine; for Dopamine Induced / Forskolin (FSK) Induced / Forskolin (FSK) Uninduced: 10 minutes; for Forskolin (FSK) Induced: 3 μM FSK; for Halo Induced: 10 μM Haloperidol pre-treatment, then 3 μM FSK + 0.3 μM dopamine; for Dopamine Response: RLU agonist-treated / forskolin-treated; for Forskolin (FSK) Response: RLU forskolin-treated / untreated; for Halo Response: RLU haloperidol then FSK + dopamine / FSK + dopamine alone; for Forskolin (FSK) Uninduced: untreated (media alone)
T1 construct: expressed in transfected cells
T1 sequence (P14416 whole entry, species assumed): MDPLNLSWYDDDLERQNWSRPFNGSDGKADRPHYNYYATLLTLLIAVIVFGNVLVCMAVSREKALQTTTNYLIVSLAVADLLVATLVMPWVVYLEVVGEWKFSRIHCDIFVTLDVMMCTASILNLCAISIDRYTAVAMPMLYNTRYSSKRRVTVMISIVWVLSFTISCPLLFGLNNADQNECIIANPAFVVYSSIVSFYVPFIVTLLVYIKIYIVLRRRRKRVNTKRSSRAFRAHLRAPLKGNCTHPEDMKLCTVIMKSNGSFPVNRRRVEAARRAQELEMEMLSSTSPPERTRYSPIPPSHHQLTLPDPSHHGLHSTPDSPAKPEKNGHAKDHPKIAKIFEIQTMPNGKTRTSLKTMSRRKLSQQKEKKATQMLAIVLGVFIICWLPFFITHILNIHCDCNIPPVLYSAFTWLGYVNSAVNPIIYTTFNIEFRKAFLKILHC
Excerpt: To measure changes in the intracellular concentration of cAMP, HEK293 cells are transiently transfected with mutant cAMP biosensors followed by treatment with compounds known to increase or decrease the intracellular cAMP concentration through GPCR activation of Gs- or Gi-coupled receptors, respectively.
HEK293 cells stably expressing the dopamine D2 receptor were transiently transfected with the mutant cAMP biosensors from Example VIIB. Cells were also transfected with either 7A1 (Example III) or GS358 (parent biosensor) as controls. Cells were equilibrated for 2 hours at room temperature using 2 mM EF-luc. Antagonist assay wells were pre-treated for 10-15 minutes at room temperature with 10 μM Haloperidol (Halo). Next, the following reagents were added to their respective wells: media alone to “untreated” samples; 3 μM forskolin (FSK) to “forskolin-treated” samples; 3 μM FSK+0.3 μM dopamine to “agonist-treated” samples; and 3 μM FSK+0.3 μM dopamine to the aforementioned wells pre-treated with Halo. The cells were then incubated at room temperature for 10 minutes and luminescence was measured. Fold response for FSK was calculated by dividing the RLU from “forskolin-treated” cells by the RLU from the “untreated” cells. Fold response for dopamine treatment was calculated by dividing the RLU from the “agonist-treated” cells by the RLU from the “forskolin-treated” cells. Fold response for Haloperidol treatment was calculated by dividing the RLU from the cells treated with haloperidol then forskolin plus dopamine by the RLU of cells treated with forskolin plus dopamine alone.

HEK293 cells = test: Luminescence and fold response of biosensor clones in HEK293 cells after isoproterenol or FSK; type: cell-based; settings: for Isoproterenol-5 minutes Induced / Isoproterenol-5 minutes Resp: 5 minutes after isoproterenol; for Forskolin (FSK) Induced / Forskolin (FSK) Resp: 15 minutes after FSK; for Isoproterenol-15 minutes Induced / Isoproterenol-15 minutes Resp: 15 minutes after isoproterenol; for Isoproterenol-5 minutes Resp / Forskolin (FSK) Resp / Isoproterenol-15 minutes Resp: RLU induced / RLU uninduced; for Isoproterenol-5 minutes Uninduced / Forskolin (FSK) Uninduced / Isoproterenol-15 minutes Uninduced: uninduced cells; for Forskolin (FSK) Uninduced / Isoproterenol-15 minutes Uninduced: 15 minutes
Protocol: B. HEK293 cells were transiently transfected with plasmid DNAs encoding various biosensor mutants as above. These biosensor mutants contained the E284A and V316I mutation in the RIIbetaB cAMP binding domain and the modified linker sequence 7A1 (GSNWDSGCSREG; SEQ ID NO: 129). The clones also contained the additional mutations outlined in Table 5. Cells were equilibrated for 2 hours at room temperature with 2 mM EF-Luc. Luminescence was measured 5 and 15 minutes after addition of the isoproterenol and 15 minutes after addition of FSK. Fold response (response; Resp.) was calculated by dividing relative light units (RLUs) from induced cells by the RLUs from uninduced cells. As a control, the biosensor GS358 and 7A1 were included.

B1: 15H6: 7A1 biosensor with F433Y, M493V in Luc2.0 and modified linker …; SEQ ID NO:107, 108 (protein)
chain: MPGAVGKVVPFFEAKVVDLDTGKTLGVNQRGELCVRGPMIMSGYVNNPEATNALIDKDGWLHSGDIAYWDEDEHFYIVDRLKSLIKYKGYQVAPAELESILLQHPNIFDAGVAGLPDDDAGELPAAVVVLEHGKTVTEKEIVDYVASQVTTAKKLRGGVVFVDEVPKGLTGKLDARKIREILIKAKKGSNWDSGCSRECMYESFIESLPFLKSLEFSARLKVVDVIGTKVYNDGEQIIAQGDSADSFFIIESGEVKITMKRKGKSEVEENGAVEIARCSRGQYFGELALVTNKPRAASAHAIGTVKCLAMDVQAFERLLGPCMEIMKRNIATYEEQLVALFGTNMDIVAKNIKKGPAPFYPLEDGTAGEQLHKAMKRYALVPGTIAFTDAHIEVDITYAEYFEMSVRLAEAMKRYGLNTNHRIVVCSENSLQFFMPVLGALFIGVAVAPANDIYNERELLNSMGISQPTVVFVSKKGLQKILNVQKKLPIIQKIIIMDSKTDYQGFQSMYTFVTSHLPPGFNEYDFVPESFDRDKTIALIMNSSGSTGLPKGVALPHRTACVRFSHARDPIFGNQIIPDTAILSVVPFHHGFGMFTTLGYLICGFRVVLMYRFEEELFLRSLQDYKIQSALLVPTLFSFFAKSTLIDKYDLSNLHEIASGGAPLSKEVGEAVAKRFHLPGIRQGYGLTETTSAILITPEGV
notes: 7A1 biosensor with F433Y, M493V in Luc2.0 and modified linker …
- Dopamine Induced (dopamine D2 receptor): 30 RLU
- Forskolin (FSK) Induced (dopamine D2 receptor): 7177 RLU
- Halo Induced (dopamine D2 receptor): 65 RLU
- Dopamine Response (dopamine D2 receptor): 0.56 fold
- Forskolin (FSK) Response (dopamine D2 receptor): 25 fold
- Halo Response (dopamine D2 receptor): 2.2 fold
- Forskolin (FSK) Uninduced (dopamine D2 receptor): 283 RLU
- Isoproterenol-5 minutes Induced (HEK293 cells): 91567 RLU
- Forskolin (FSK) Induced (HEK293 cells): 29500 RLU
- Isoproterenol-15 minutes Induced (HEK293 cells): 244700 RLU
- Isoproterenol-5 minutes Resp (HEK293 cells): 85 fold
- Forskolin (FSK) Resp (HEK293 cells): 57 fold
- Isoproterenol-15 minutes Resp (HEK293 cells): 61 fold
- Isoproterenol-5 minutes Uninduced (HEK293 cells): 1073 RLU
- Forskolin (FSK) Uninduced (HEK293 cells): 4040 RLU
- Isoproterenol-15 minutes Uninduced (HEK293 cells): 4040 RLU

B2: 1B3: 7A1 biosensor with A338E in RIIβb; SEQ ID NO:33, 34 (protein)
chain: MPGAVGKVVPFFEAKVVDLDTGKTLGVNQRGELCVRGPMIMSGYVNNPEATNALIDKDGWLHSGDIAYWDEDEHFFIVDRLKSLIKYKGYQVAPAELESILLQHPNIFDAGVAGLPDDDAGELPAAVVVLEHGKTMTEKEIVDYVASQVTTAKKLRGGVVFVDEVPKGLTGKLDARKIREILIKAKKGSNWDSGCSREGMYESFIESLPFLKSLEFSARLKVVDVIGTKVYNDGEQIIAQGDSADSFFIIESGEVKITMKRKGKSEVEENGEVEIARCSRGQYFGELALVTNKPRAASAHAIGTVKCLAMDVQAFERLLGPCMEIMKRNIATYEEQLVALFGTNMDIVAKNIKKGPAPFYPLEDGTAGEQLHKAMKRYALVPGTIAFTDAHIEVDITYAEYFEMSVRLAEAMKRYGLNTNHRIVVCSENSLQFFMPVLGALFIGVAVAPANDIYNERELLNSMGISQPTVVFVSKKGLQKILNVQKKLPIIQKIIIMDSKTDYQGFQSMYTFVTSHLPPGFNEYDFVPESFDRDKTIALIMNSSGSTGLPKGVALPHRTACVRFSHARDPIFGNQIIPDTAILSVVPFHHGFGMFTTLGYLICGFRVVLMYRFEEELFLRSLQDYKIQSALLVPTLFSFFAKSTLIDKYDLSNLHEIASGGAPLSKEVGEAVAKRFHLPGIRQGYGLTETTSAILITPEGV
- Dopamine Induced (dopamine D2 receptor): 1898 RLU
- Forskolin (FSK) Induced (dopamine D2 receptor): 8410 RLU
- Halo Induced (dopamine D2 receptor): 5228 RLU
- Dopamine Response (dopamine D2 receptor): 0.23 fold
- Forskolin (FSK) Response (dopamine D2 receptor): 18 fold
- Halo Response (dopamine D2 receptor): 2.8 fold
- Forskolin (FSK) Uninduced (dopamine D2 receptor): 460 RLU
- Isoproterenol-5 minutes Induced (HEK293 cells): 59767 RLU
- Forskolin (FSK) Induced (HEK293 cells): 305500 RLU
- Isoproterenol-15 minutes Induced (HEK293 cells): 344375 RLU
- Isoproterenol-5 minutes Resp (HEK293 cells): 36 fold
- Forskolin (FSK) Resp (HEK293 cells): 47 fold
- Isoproterenol-15 minutes Resp (HEK293 cells): 53 fold
- Isoproterenol-5 minutes Uninduced (HEK293 cells): 1673 RLU
- Forskolin (FSK) Uninduced (HEK293 cells): 6460 RLU
- Isoproterenol-15 minutes Uninduced (HEK293 cells): 6460 RLU

B3: 9G4: 7A1 biosensor with E382K in RIIβb; SEQ ID NO:37, 38 (protein)
chain: MPGAVGKVVPFFEAKVVDLDTGKTLGVNQRGELCVRGPMIMSGYVNNPEATNALIDKDGWLHSGDIAYWDEDEHFFIVDRLKSLIKYKGYQVAPAELESILLQHPNIFDAGVAGLPDDDAGELPAAVVVLEHGKTMTEKEIVDYVASQVTTAKKLRGGVVFVDEVPKGLTGKLDARKIREILIKAKKGSNWDSGCSREGMYESFIESLPFLKSLEFSARLKVVDVIGTKVYNDGEQIIAQGDSADSFFIIESGEVKITMKRKGKSEVEENGAVEIARCSRGQYFGELALVTNKPRAASAHAIGTVKCLAMDVQAFKRLLGPCMEIMKRNIATYEEQLVALFGTNMDIVAKNIKKGPAPFYPLEDGTAGEQLHKAMKRYALVPGTIAFTDAHIEVDITYAEYFEMSVRLAEAMKRYGLNTNHRIVVCSENSLQFFMPVLGALFIGVAVAPANDIYNERELLNSMGISQPTVVFVSKKGLQKILNVQKKLPIIQKIIIMDSKTDYQGFQSMYTFVTSHLPPGFNEYDFVPESFDRDKTIALIMNSSGSTGLPKGVALPHRTACVRFSHARDPIFGNQIIPDTAILSVVPFHHGFGMFTTLGYLICGFRVVLMYRFEEELFLRSLQDYKIQSALLVPTLFSFFAKSTLIDKYDLSNLHEIASGGAPLSKEVGEAVAKRFHLPGIRQGYGLTETTSAILITPEGV
- Dopamine Induced (dopamine D2 receptor): 1735 RLU
- Forskolin (FSK) Induced (dopamine D2 receptor): 4133 RLU
- Halo Induced (dopamine D2 receptor): 4370 RLU
- Dopamine Response (dopamine D2 receptor): 0.42 fold
- Forskolin (FSK) Response (dopamine D2 receptor): 14 fold
- Halo Response (dopamine D2 receptor): 2.5 fold
- Forskolin (FSK) Uninduced (dopamine D2 receptor): 293 RLU
- Isoproterenol-5 minutes Induced (HEK293 cells): 27930 RLU
- Forskolin (FSK) Induced (HEK293 cells): 263020 RLU
- Isoproterenol-15 minutes Induced (HEK293 cells): 264500 RLU
- Isoproterenol-5 minutes Resp (HEK293 cells): 50 fold
- Forskolin (FSK) Resp (HEK293 cells): 46 fold
- Isoproterenol-15 minutes Resp (HEK293 cells): 46 fold
- Isoproterenol-5 minutes Uninduced (HEK293 cells): 553 RLU
- Forskolin (FSK) Uninduced (HEK293 cells): 5760 RLU
- Isoproterenol-15 minutes Uninduced (HEK293 cells): 5760 RLU

B4: 16B3: 7A1 biosensor with S440N in Luc2.0; SEQ ID NO:72, 73 (protein)
chain: MPGAVGKVVPFFEAKVVDLDTGKTLGVNQRGELCVRGPMIMSGYVNNPEATNALIDKDGWLHSGDIAYWDEDEHFFIVDRLKNLIKYKGYQVAPAELESILLQHPNIFDAGVAGLPDDDAGELPAAVVVLEHGKTMTEKEIVDYVASQVTTAKKLRGGVVFVDEVPKGLTGKLDARKIREILIKAKKGSNWDSGCSREGMYESFIESLPFLKSLEFSARLKVVDVIGTKVYNDGEQIIAQGDSADSFFIIESGEVKITMKRKGKSEVEENGAVEIARCSRGQYFGELALVTNKPRAASAHAIGTVKCLAMDVQAFERLLGPCMEIMKRNIATYEEQLVALFGTNMDIVAKNIKKGPAPFYPLEDGTAGEQLHKAMKRYALVPGTIAFTDAHIEVDITYAEYFEMSVRLAEAMKRYGLNTNHRIVVCSENSLQFFMPVLGALFIGVAVAPANDIYNERELLNSMGISQPTVVFVSKKGLQKILNVQKKLPIIQKIIIMDSKTDYQGFQSMYTFVTSHLPPGFNEYDFVPESFDRDKTIALIMNSSGSTGLPKGVALPHRTACVRFSHARDPIFGNQIIPDTAILSVVPFHHGFGMFTTLGYLICGFRVVLMYRFEEELFLRSLQDYKIQSALLVPTLFSFFAKSTLIDKYDLSNLHEIASGGAPLSKEVGEAVAKRFHLPGIRQGYGLTETTSAILITPEGV
- Dopamine Induced (dopamine D2 receptor): 3050 RLU
- Forskolin (FSK) Induced (dopamine D2 receptor): 6400 RLU
- Halo Induced (dopamine D2 receptor): 6188 RLU
- Dopamine Response (dopamine D2 receptor): 0.48 fold
- Forskolin (FSK) Response (dopamine D2 receptor): 17 fold
- Halo Response (dopamine D2 receptor): 2.0 fold
- Forskolin (FSK) Uninduced (dopamine D2 receptor): 370 RLU
- Isoproterenol-5 minutes Induced (HEK293 cells): 72003 RLU
- Forskolin (FSK) Induced (HEK293 cells): 257605 RLU
- Isoproterenol-15 minutes Induced (HEK293 cells): 248415 RLU
- Isoproterenol-5 minutes Resp (HEK293 cells): 35 fold
- Forskolin (FSK) Resp (HEK293 cells): 39 fold
- Isoproterenol-15 minutes Resp (HEK293 cells): 38 fold
- Isoproterenol-5 minutes Uninduced (HEK293 cells): 2063 RLU
- Forskolin (FSK) Uninduced (HEK293 cells): 6555 RLU
- Isoproterenol-15 minutes Uninduced (HEK293 cells): 6555 RLU

Reference: patent US9879306B2, “Luciferase biosensors for cAMP” (PROMEGA CORPORATION, priority 2008, dated 2018)
